Here are results for four molecules from US20240400703A1 (Genmab, published 2024).

Numbering of substitutions follows the chain as printed. Names may count otherwise.

The Kd is the constant that tells how readily two partners part at equilibrium. As a reminder, the koff is a measure of how fast the partners let go of each other. One may read the kon as the rate constant with which the complex forms.

Assay [1] deals with T1, recombinant human OX40 fused to a His-tag (Acro Biosystems, cat. no. OX0-H5224) (human, UniProt P43489 29-214).
T1 construct: bought protein; also called sOX40; soluble OX40; not shown: His-tag
T1 sequence: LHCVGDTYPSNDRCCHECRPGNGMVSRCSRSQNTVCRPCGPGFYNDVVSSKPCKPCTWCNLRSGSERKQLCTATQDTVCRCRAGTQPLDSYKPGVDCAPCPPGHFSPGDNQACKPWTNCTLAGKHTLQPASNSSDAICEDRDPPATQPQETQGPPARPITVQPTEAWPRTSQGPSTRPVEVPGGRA
The assay is described as follows: BLI, Ab on AHC sensor, OX40 analyte. The method, then:
(§1) Experiments were carried out while shaking at 1,000 RPM at 30° C. […] Next, AHC sensors were loaded with antibody (1 μg/mL in Sample Diluent) for 600 s. After a baseline measurement in sample diluent (100 s), the association (200 s) and dissociation (1,000 s) of human OX40 (Acro Biosystems, cat. no. OX0-H5224), and cynomolgus monkey OX40 (Acro Biosystems, cat. no. OX0-C5220) was determined using a concentration range of 0.78 to 800 nM with 2-fold dilution steps.
(§2) The theoretical molecular masses of the antigens based on the amino acid sequences were used for calculations. For each antibody, a reference sensor was used which was incubated with Sample Diluent instead of antigen. AHC sensors were regenerated by exposure to 10 mM glycine buffer pH 1.7 for 5 s, followed by neutralization in Sample Diluent for 5 s; both steps were repeated twice. Subsequently sensors were loaded again with antibody for the next cycle of kinetic measurements.
(§3) Data were acquired using Data Acquisition Software v12.0 (Sartorius) and analyzed with Data Analysis Software v12.0 (Sartorius). Data traces were corrected per antibody by subtraction of the reference sensor. The Y-axis was aligned to the last 10 s of the baseline and Interstep Correction alignment to dissociation as well as Savitzky-Golay filtering were applied. Data traces with a response <0.05 nm were excluded from analysis. […] The data was fitted with the 1:1 model using a window of interest for the association of 200 s and dissociation times set at 50 s, 200 s and 1,000 s. The dissociation time was chosen based upon R² value, visual inspection of the curve and at least 5% signal decay during the dissociation step.
Background: Biolayer interferometry detects binding as a change in optical thickness at a sensor tip.

Assay [2] concerns the target T1, recombinant human OX40 fused to a …. The assay is described as follows: BLI cross-block; first Ab (competitor): IgG1-CD134-INCAGN1949. As for the experimental part: (§4) Experiments were carried out while shaking at 1,000 RPM and at 30° C.
(§5) Amine Reactive 2nd Generation (AR2G) biosensors (Sartorius, cat. no. 18-5092) were activated for 300 s with a solution of 20 mM EDC (N-(3-Dimethylaminopropyl)-N-ethylcarbodiimide hydrochloride; Sartorius, cat. no. 18-1033) and 10 mM s-NHS (N-hydroxysulfosuccinimide sodium salt; Sartorius, cat. no. 18-1067). […] After a baseline measurement in Sample Diluent (Sartorius, cat. no. 18-1104) for 50 s, the AR2G biosensors containing immobilized antibody were loaded for 300 s with human OX40 fused to a His-tag (100 nM diluted in Sample Diluent; Acro Biosystems, cat. no. OX0-H5224). The association (300 s) of a second antibody (10 μg/mL in Sample Diluent) was determined. Sensors were regenerated by three cycles of exposure to 10 mM Glycine (Sigma-Aldrich, cat. no. 15527) buffer pH 2.5 for 5 s followed by neutralization in Sample Diluent for 5 s.
(§6) Data were acquired using Data Acquisition Software v12.0 (Sartorius) and analyzed with Data Analysis HT Software v12.0 (Sartorius). Data traces were corrected by subtraction of a reference curve (Sample Diluent instead of second antibody) in order to correct for the dissociation of antigen from the immobilized first antibody. The Y-axis was aligned to the start of the association step and Savitzky-Golay filtering was applied. The corrected association responses of the second antibodies were plotted in a matrix format (Table 5). Responses ≥0.1 nm were considered non-blocking antibody pairs, while responses <0.1 were considered blocking antibody pairs.

Assay [3] shares this target. Kind of assay: BLI cross-block; first Ab (competitor): IgG1-CD134-003-HC6LC2-RR. The method, then: as §5, §6
Assay [4] shares this target. The assay is described as follows: BLI cross-block; first Ab (competitor): IgG1-CD134-012. As for the experimental part: as §4, §5, §6
Assay [5] has the same target. The assay is described as follows: BLI cross-block; first Ab (competitor): IgG1-CD134-IBI101. As for the experimental part: as §5, §6
The target of assay [6] is T2, recombinant cynomolgus monkey OX40 (Acro Biosystems, cat. no. OX0-C5220) (cynomolgus monkey (Macaca fascicularis), UniProt P43489 29-214 (human entry)).
T2 construct: bought protein; also called Cyno OX40
T2 chain: T1 sequence with H16Q, S29N, S50A, P55A, L70P, A145P, I159T, G173R, G183R, R185P
The assay is described as follows: BLI, Ab on AHC sensor, OX40 analyte. The method, then: as §1, §2, §3

B1: IgG1-CD134-012 (antibody)
heavy: not shown
light: DIVMTQTPASVEAAVGGTVTIKCQASENIYSSLAWYQQKPGQPPKLLIYRTSTLASGVPSRFKGSGSGTQFTLTISDLESDDAATYYCQSYYHNSGGGYDYGFGGGTEVVAKRTVAAPSVFIFPPSDEQLKSGTASVVCLLNNFYPREAKVQWKVDNALQSGNSQESVTEQDSKDSTYSLSSTLTLSKADYEKHKVYACEVTHQGLSSPVTKSFNRGEC
notes: rabbit-human chimeric IgG1
Turning to B1, the equilibrium dissociation constant (Kd) in assay [1] turned out to be 11 nM. The koff in assay [1] is 0.0016 s⁻¹. Further, the association rate constant (kon) in assay [1] came to 140000 M⁻¹ s⁻¹. Besides, the association response in assay [2] came out at 0.07 nm; in assay [3], 0.03 nm; in assay [4] it was 0 nm; in assay [5] it was 0.28 nm.

B2: IgG1-CD134-003 (antibody)
heavy: not shown
light: AAVLTQTPSPVSAAVGGTVTIKCQSSQIVVNNNFLSWYQQKPGQPPKLLIYDASNLASGVPDRFSGSGSGTQFTLTISGVQSDDAATYYCLGGYDDDAENAFGGGTEVVVQRTVAAPSVFIFPPSDEQLKSGTASVVCLLNNFYPREAKVQWKVDNALQSGNSQESVTEQDSKDSTYSLSSTLTLSKADYEKHKVYACEVTHQGLSSPVTKSFNRGEC
notes: rabbit-human chimeric IgG1, wild-type Fc; also called parental chimeric antibody
B2: the dissociation constant Kd is 1.1 nM in assay [1] and 3.5 nM in assay [6]. Besides, the figures for the koff in assay [1] and in assay [6] were 0.00035 s⁻¹ and 0.00096 s⁻¹, respectively. Further, the results for the kon in assay [1] and in assay [6] were 330000 M⁻¹ s⁻¹ and 280000 M⁻¹ s⁻¹, respectively. The association response in assay [2] was 0.15 nm; in assay [3], -0.03 nm; in assay [4], -0.01 nm; in assay [5], 0.23 nm.

B3: IgG1-CD134-003-HC6LC2-P329R-E345R (antibody)
heavy: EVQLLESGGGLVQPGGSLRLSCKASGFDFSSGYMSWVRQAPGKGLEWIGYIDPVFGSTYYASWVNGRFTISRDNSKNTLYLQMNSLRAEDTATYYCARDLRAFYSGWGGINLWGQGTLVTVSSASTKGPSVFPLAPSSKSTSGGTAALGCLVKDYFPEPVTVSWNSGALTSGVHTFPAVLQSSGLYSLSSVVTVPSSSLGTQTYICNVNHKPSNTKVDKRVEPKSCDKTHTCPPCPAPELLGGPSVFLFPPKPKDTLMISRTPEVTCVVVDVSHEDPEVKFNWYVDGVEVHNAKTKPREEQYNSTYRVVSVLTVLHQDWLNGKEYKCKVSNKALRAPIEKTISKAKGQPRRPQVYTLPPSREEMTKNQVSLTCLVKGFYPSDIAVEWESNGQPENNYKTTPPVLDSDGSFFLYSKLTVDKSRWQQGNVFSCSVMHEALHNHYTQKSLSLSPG
light: AAVLTQSPSSLSASVGDRVTITCQSSQIVVNNNFLSWYQQKPGKAPKLLIYDASNLASGVPDRFSGSGSGTDFTFTISSLQPEDIATYYCLGGYDDDAENAFGGGTKVEIKRTVAAPSVFIFPPSDEQLKSGTASVVCLLNNFYPREAKVQWKVDNALQSGNSQESVTEQDSKDSTYSLSSTLTLSKADYEKHKVYACEVTHQGLSSPVTKSFNRGEC
notes: humanized; human IgG1 with P329R and E345R (Eu numbering), kappa; also called IgG1-CD134-003-HC6LC2-RR
Take B3: the equilibrium dissociation constant (Kd) stood at 3.4 nM in assay [1] and 27 nM in assay [6]. Moreover, the koff in assay [1] came to 0.00086 s⁻¹; in assay [6], 0.0029 s⁻¹. In addition, the on-rate constant (kon) in assay [1] worked out at 250000 M⁻¹ s⁻¹; in assay [6], 110000 M⁻¹ s⁻¹. Further, the association response in assay [2] is 0.19 nm; in assay [3], 0 nm; in assay [4], -0.02 nm; in assay [5], 0.34 nm.

B4: IgG1-CD134-007 (antibody)
heavy: not shown
light: AQVLTQTPSPVSAAVGGTVTISCQSSESVWNNNWLAWYQQKPGQPPNLLIYEASTLASGVSSRFKGSGSGTQFTLTVSEVQSDDAATYYCQGGYYDSSPIWTFGGGTEVVVKRTVAAPSVFIFPPSDEQLKSGTASVVCLLNNFYPREAKVQWKVDNALQSGNSQESVTEQDSKDSTYSLSSTLTLSKADYEKHKVYACEVTHQGLSSPVTKSFNRGEC
notes: rabbit-human chimeric IgG1
Consider B4, for which the results for the dissociation constant Kd in assay [1] and in assay [6] were 2 nM and 7.1 nM, respectively. Moreover, the dissociation rate constant (koff) was 0.00075 s⁻¹ in assay [1] and 0.0018 s⁻¹ in assay [6]. Moreover, the kon in assay [1] is 380000 M⁻¹ s⁻¹; in assay [6], 260000 M⁻¹ s⁻¹. In addition, the association response in assay [2] was 0.06 nm; in assay [3] it was -0.07 nm; in assay [4], 0.8 nm; in assay [5], 0 nm.
